Measurements as given in US8030025B2.
Values joined by “and” are separate entries in the source; they are usually repeats but may differ in a detail not shown here. Equal values may be shown once. Values belong to the substance of their own block, whether it stands above or below them.

Key:
[1] = target: biotinylated human angiopoietin 1 (human) (UniProt Q15389); assay: HTRF neutralization; biotin-hAng1 vs huTie-2-Fc-APC
[2] = target: biotinylated human angiopoietin 1 (human) (UniProt Q15389); assay: angiopoietin:Tie2 neutralization HTRF; biotin-hAng1 vs Tie2-APC
[3] = target: biotinylated human angiopoietin 2 (human) (UniProt O15123); assay: angiopoietin:Tie2 neutralization HTRF; biotin-hAng2 vs Tie2-APC
[4] = target: biotinylated human angiopoietin 2 (human) (UniProt O15123); assay: HTRF neutralization; biotin-hAng2 vs huTie-2-Fc-APC
Murine Ang1 (mouse) [5] = target: Murine Ang1 (mouse) (UniProt O08538); assay: neutralization ELISA; coated angiopoietin vs Tie2-Fc
[6] = target: Cyno Ang1 (cynomolgus monkey); assay: as above
Rabbit Ang1 (rabbit) [7] = target: Rabbit Ang1 (rabbit) (UniProt G1SK98); assay: as above
Human Ang2 (human) [8] = target: Human Ang2 (human) (UniProt O15123); assay: as above
Human Ang1 (human) [9] = target: Human Ang1 (human) (UniProt Q15389); assay: as above
[10] = target: Cyno Ang2 (cynomolgus monkey); assay: as above
Rabbit Ang2 (rabbit) = Rabbit Ang2 (rabbit) (UniProt G1T9B3); assay: as above
Murine Ang2 (mouse) [11] = target: Murine Ang2 (mouse) (UniProt O35608); assay: as above
Murine Ang1 (mouse) [12] = target: Murine Ang1 (mouse) (UniProt O08538); assay: angiopoietin:Tie2 neutralization ELISA; coated angiopoietin vs hTie2-Fc
[13] = target: Cyno Ang1 (cynomolgus monkey); assay: as above
Rabbit Ang1 (rabbit) [14] = target: Rabbit Ang1 (rabbit) (UniProt G1SK98); assay: as above
Human Ang2 (human) [15] = target: Human Ang2 (human) (UniProt O15123); assay: as above
Human Ang1 (human) [16] = target: Human Ang1 (human) (UniProt Q15389); assay: as above
[17] = target: Cyno Ang2 (cynomolgus monkey); assay: as above
Murine Ang2 (mouse) [18] = target: Murine Ang2 (mouse) (UniProt O35608); assay: as above
[19] = target: Tie2 in mouse lung endothelium (mouse) (UniProt Q02858)

- IC50 [1]: 2.6 nM and 3.9 nM
- IC90 [1]: 106 nM and 278 nM
- IC50 [2]: 6.2 nM
- IC50 [3]: 0.029 nM
- IC50 [4]: 0.03 nM
- IC90 [4]: 0.13 nM and 0.15 nM
- IC50 (Murine Ang1 (mouse) [5]): 2.7 nM
- IC50 [6]: 2.9 nM
- IC50 (Rabbit Ang1 (rabbit) [7]): 4.3 nM
- IC50 (Human Ang2 (human) [8]): 0.12 nM
- IC50 (Human Ang1 (human) [9]): 1.2 nM
- IC50 [10]: 0.17 nM
- IC50 (Rabbit Ang2 (rabbit)): 0.1 nM
- IC50 (Murine Ang2 (mouse) [11]): 0.1 nM
Substance: AMG 386 (Fc fusion)

- IC50 [2]: > 10000 nM
- IC50 [3]: > 10000 nM
- IC50 (Murine Ang1 (mouse) [12]): > 10000 nM
- IC50 [13]: > 10000 nM
- IC50 (Rabbit Ang1 (rabbit) [14]): > 10000 nM
- IC50 (Human Ang2 (human) [15]): > 10000 nM
- IC50 (Human Ang1 (human) [16]): > 10000 nM
- IC50 [17]: > 10000 nM
- IC50 (Murine Ang2 (mouse) [18]): > 10000 nM
Substance: Fc

- IC50 [2]: > 10000 nM
- IC50 [3]: 0.064 nM
Substance: L1-7(N) (Fc fusion)

- Tie2 phosphorylation in mouse lung endothelium [19]: 5 fold
Substance: recombinant Ang1 (R&D Systems Inc.) (ligand)
